Patent US5747239A, “Synthetic peptides specific for the detection of antibodies to HCV, diagnosis of HCV infection and preventions thereof as vaccines” (United Biomedical, Inc., priority 1994, dated 1998)

What was measured:
Type in all cases: binding, human
antibodies to HCV [1] = experiment: NS-1 peptide ELISA, Panel II (asymptomatic individuals, mainland China and Taiwan)
Method: Wells of 96-well plates were coated for 1 hour at 37° C. with each of the 16 peptides (designated as peptides 241A-C, 231A-E, 232A-D, 233C, 234A-C), synthesized according to sequences derived from the NS-1 region (Table 3A), at 5 ug/mL at 100 uL per well in 10 mM NaHCO3 buffer, pH 9.5. Each peptide's immunoreactivity was measured as previously described (see Example 1), using an 8 member serum panel (Panel I).
A panel of serum samples from individuals coming from regions in which hepatitis C is endemic, namely mainland China and Taiwan, were tested for evidence of reactivity to these NS-1 protein derived peptides. Twenty-four samples were chosen from individuals who had no recognizable symptoms of non-A, non-B hepatitis and for whom the peptide based HCV EIA, Format C, as described in Example 11, was nonreactive. Seven of the 24 samples (29%) were reactive against one or more peptides from the NS-1 region, indicative of the presence of long term protective antibodies responsive to this region. This 7 member panel (designated as Panel II, CH1-CH7) was used to further characterize these NS-1 peptides for their immunoreactivity.
The peptide with the greatest reactivity against the serum Panel II again was pep1 (designated 231c in Table 3A). Using this peptide as a standard, the relative immunoreactivity for each of the other 15 peptides from the NS-1 region are calculated in Table 3A.

antibodies to HCV [2] = experiment: Peptide ELISA for relative immunoreactivity, 8 member HCV serum panel (Panel I); conditions: for absorbance of the one reactive panel member: reactive with only one of eight
Method: As an example to illustrate how relative (%) immunoreactivity for HCV synthetic peptides is measured, wells of 96-well plates are coated for 1 hour at 37° C., with each of the following peptides: IIH, V, VIIIE and pep11 at 5 ug/mL at 100 uL per well in 10 mM NaHCO3 buffer, pH 9.5. The peptide coated wells were then incubated with 250 uL of 3% by weight of gelatin in PBS in 37° C. for 1 hour to block non-specificprotein binding sites, followed by three washes with PBS containing 0.05% by volume of TWEEN 20 and then dried. The test specimens containing a panel of eight well-characterized HCV antibody positive patient sera were diluted with PBS containing 20% by volume normal goat serum, 1% by weight gelatin and 0.05% by volume TWEEN 20 at dilutions of 1:20 volume to volume, respectively. 200 uL of the diluted specimens were added to each of the wells and allowed to react for 15 minutes at 37° C.
The wells were then washed six times with 0.05% by volume TWEEN 20 in PBS in order to remove unbound antibodies. Horseradish peroxidase conjugated goat anti-human IgG was used as a second antibody tracer to bind with the HCV antibody-peptide antigen complex formed in positive wells. 100 uL of peroxidase labeled goat anti-human IgG at a dilution of 1:1800 in 1% by volume normal goat serum, 0.05% by volume TWEEN 20 in PBS was added to each well and incubated at 37° C. for another 15 minutes.
The wells were washed six times with 0.05% by volume TWEEN 20 PBS to remove unbound antibody and reacted with 100 uL of the substrate mixture containing 0.04% by weight orthophenylenediamine (OPD) and 0.12% by volume hydrogen peroxide in sodium citrate buffer, pH 5.0.
This substrate mixture was used to detect the peroxidase label by forming a colored product. Reactions were stopped by the addition of 100 uL of 1.0M H2 SO4 and the A492 mm measured. Results of relative immunoreactivity for each of the peptides obtained from this study are shown in Table A using peptide II H as the reference.

antibodies to HCV [3] = experiment: Envelope/NS-1 peptide ELISA, anti-HCV positive plasmapheresis donors with elevated ALT (Panel III); conditions: envelope/NS-1 peptides; Panel III (17 samples); peptide 254B as a standard
Method: To select a panel of samples with reactivity to peptides from the envelope/NS-1 region, 97 such samples from anti-HCV positive plasmapheresis donors with elevated ALT levels were tested with peptide 254B. […] 17 samples with the greatest reactivity with peptide 254B were chosen to form a third panel (Panel III) to screen for the immunoreactivity of the other 20 peptides from the envelope/NS-1 region. The individual absorbance values of each of the 17 samples on the four peptides with the greatest reactivity, i.e. 255C (pep7), 254B (pep8), 247B (pep9), and 246D (pep10), are listed in Table 8b.

antibodies to HCV [4] = experiment: EIA of NS-3 peptides before and after pH adjustment
Method: Peptides dissolved at 1 mg/mL in H2 O, pH 4, were titrated to pH 11 by addition of diluted NaOH. After 5 min at pH 11, the pH of the peptide solution was brought down to 7.0 using diluted HCl. Immunoreactivity of the peptides thus treated was compared with reactivity prior to pH adjustment (Table 4E). Two-to three-fold increases in A492 nm were seen. Some previously non-reactive serum samples were able to react with pH adjusted peptides. For instance, serum sample 1, which is non-reactive to 261C, has an absorbance of 1401 mA when tested with the corresponding pH adjusted peptide.

[5] = NS-3 peptides (Table 4A), Panel I, relative to pep3 (279A)
[6] = NS-5 peptides (Table 12), Panel I, pep11 as a standard
[7] = capsid peptides, Panel I, relative to VIIIE, coated at 5, 1 and 0.2 μg/mL
[8] = serum sample 1, Ctrl (prior to pH adjustment)
[9] = serum sample 1, pH adj (pH 11 for 5 min, then 7.0)

In the case of PPLGNWFGCTWMNSTGFTKVCGAPPC [232A], the “% IP” value (antibodies to HCV [1]; NS-1 peptides, Panel II (CH1-CH7), relative to pep1 (231C)) is reported as 88.7%, the “A492 nm by EIA (mA)” value (antibodies to HCV [1]; Panel II sample CH-1) is reported as 202 mA and the “A492 nm by EIA (mA)” value (antibodies to HCV [1]; Panel II sample CH-2) is reported as 261 mA. The “A492 nm by EIA (mA)” value (antibodies to HCV [1]; Panel II sample CH-3) was 935 mA, the “A492 nm by EIA (mA)” value (antibodies to HCV [1]; Panel II sample CH-4) was 1498 mA and the “A492 nm by EIA (mA)” value (antibodies to HCV [1]; Panel II sample CH-5) was 621 mA. For the same molecule, the “A492 nm by EIA (mA)” value (antibodies to HCV [1]; Panel II sample CH-6) was 1128 mA and the “A492 nm by EIA (mA)” value (antibodies to HCV [1]; Panel II sample CH-7) was 552 mA.

For PVVPQSFQVAHLHAPTGSGKSTKVPAAYA [278A], the “% IP” value (antibodies to HCV [2]; [5]) was 8.2%.

“PVVPQSFQVAHLHAPTGSGKSTKVPAAYAAQGYKVLVLNPS [272A]” was tested, and the “% IP” value (antibodies to HCV [2]; [5]) was 2.1%.

For “RTITTGSPITYSTYGKFLADGGCSGGAYDIIICDECHSTDATSILGIGTVLDQAETAGARLVVLATATPPGSVTVPHPNIEEVALSTTGEIPFYGKAIPLEVIKGGRHLIFCHSKKKCDEL [261F]”, the “absorbance of the one reactive panel member” value (antibodies to HCV [2]; Panel I) was 269 mA.

With “SECTTPCSGSWLRDIWDWICEVLSDFKTWLKAKLMPQL [314B]” the “% IP” value (antibodies to HCV [2]; [6]) was 11.6%.

With “TNDCPNSSIVYEAHDAILHTPGCVPCVREGNVSRC [255A]” the “% Relative Immunoreactivity” value (antibodies to HCV [3]) was 9.8%.

TQGCNCSIYPGHITGHRMAWDMMMWSPTA [254A] was tested, and the “% Relative Immunoreactivity” value (antibodies to HCV [3]) was 21.4%.

With “TWAQPGYPWPLYGNEGCGWAGWLLSPRGSRPSWGPTDPRRRSRNLG [IXC]” the “% Relative Immunoreactivity” value (antibodies to HCV [2]; [7]) was 57.9%.

“VGGVYLLPRRGPRLGVRATRKTSERSQPRGRR [VIIIB]” was tested, and the “% Relative Immunoreactivity” value (antibodies to HCV [2]; [7]) was 48.9%.

B1: GGAYDIIICDECHSTDATSILGIGTVLDQAETAGARLVVLATATPPGSVTVPHPNIEEVALSTTGEIPFYGKAIPLEVIKGGRHLIFCHSKKKCDEL (peptide)
chain: GGAYDIIICDECHSTDATSILGIGTVLDQAETAGARLVVLATATPPGSVTVPHPNIEEVALSTTGEIPFYGKAIPLEVIKGGRHLIFCHSKKKCDEL
B1 was tested, and the “absorbance of the one reactive panel member” value (antibodies to HCV [2]; Panel I) was 307 mA.

B2: GCSGGAYDIIICDECHSTDATSILGIGTVLDQAETAGARLVVLATATPPGSVTVPHPNIEEVAL (peptide)
chain: GCSGGAYDIIICDECHSTDATSILGIGTVLDQAETAGARLVVLATATPPGSVTVPHPNIEEVAL
B2 was tested, and the “A492 nm (mA) by EIA” value (antibodies to HCV [4]; [8]) was 628 mA, the “A492 nm (mA) by EIA” value (antibodies to HCV [4]; [9]) was 1604 mA and the “A492 nm (mA) by EIA” value (antibodies to HCV [4]; serum sample 2, Ctrl) was 148 mA. For the same molecule, the “A492 nm (mA) by EIA” value (antibodies to HCV [4]; serum sample 2, pH adj) was 466 mA, the “A492 nm (mA) by EIA” value (antibodies to HCV [4]; serum sample 3, Ctrl) was 9 mA and the “A492 nm (mA) by EIA” value (antibodies to HCV [4]; serum sample 3, pH adj) was 625 mA. The “A492 nm (mA) by EIA” value (antibodies to HCV [4]; serum sample 4, Ctrl) was 464 mA and the “A492 nm (mA) by EIA” value (antibodies to HCV [4]; serum sample 4, pH adj) was 1144 mA.

B3: KKGEASNGEAENDTHKKQRRYKEKEKTATNNPGKNKKPRVGRIKNWNREGRKDAYQIRKRR (peptide)
peptide: KKGEASNGEAENDTHKKQRRYKEKEKTATNNPGKNKKPRVGRIKNWNREGRKDAYQIRKRR
In the case of B3, the “% Relative Immunoreactivity” value (antibodies to HCV [2]; Arima clone 1 peptides, relative to peptide VIIIE) is reported as 20.7%.

B4: GRRQPIPKVRRPEGRTWAQPGYPWPLYGNEGCGWAGWLLSPRGSRPSWGPTDPRRRSRNLG (peptide)
peptide: GRRQPIPKVRRPEGRTWAQPGYPWPLYGNEGCGWAGWLLSPRGSRPSWGPTDPRRRSRNLG
B4 was tested, and the “% Relative Immunoreactivity” value (antibodies to HCV [2]; [7]) was 50.2%.

B5: AVDFIPVENLETTMRSPVFTDNSSPPVVPQSFQVAHLHAPTGSGKSTKVPAAYAAQGYKVLVLNPS (peptide)
chain: AVDFIPVENLETTMRSPVFTDNSSPPVVPQSFQVAHLHAPTGSGKSTKVPAAYAAQGYKVLVLNPS
B5 was tested, and the “A492 nm (mA) by EIA” value (antibodies to HCV [4]; [8]) was 8 mA, the “A492 nm (mA) by EIA” value (antibodies to HCV [4]; [9]) was 973 mA and the “A492 nm (mA) by EIA” value (antibodies to HCV [4]; serum sample 2, Ctrl) was 74 mA. For the same molecule, the “A492 nm (mA) by EIA” value (antibodies to HCV [4]; serum sample 2, pH adj) was 255 mA, the “A492 nm (mA) by EIA” value (antibodies to HCV [4]; serum sample 3, Ctrl) was 29 mA and the “A492 nm (mA) by EIA” value (antibodies to HCV [4]; serum sample 3, pH adj) was 141 mA. The “A492 nm (mA) by EIA” value (antibodies to HCV [4]; serum sample 4, Ctrl) was 17 mA, the “A492 nm (mA) by EIA” value (antibodies to HCV [4]; serum sample 4, pH adj) was 158 mA and the “% IP” value (antibodies to HCV [2]; [5]) was 11.8%.

B6: AEEDEREISVPAEILRKSRRFAQALPVWARPDYNPPLVETWKKPDYEPPVVHGCPLPPPKSPPVPPPRKKRT (peptide)
chain: AEEDEREISVPAEILRKSRRFAQALPVWARPDYNPPLVETWKKPDYEPPVVHGCPLPPPKSPPVPPPRKKRT
B6 was tested, and the “% IP” value (antibodies to HCV [2]; [6]) was 97.2%.
